± gives the standard error. Fewer inactive variants are shown than the library holds.
B1: glmS ribozyme (parent)
chain: AUAAAAGCGCCAGAACUACAGAAAUGUAGUUGACGAGGAGGAGGUUUAUCGAAUUUUCGGCGGAUGCCUCCAAA

What was measured:
Details in all cases: with glucosamine-6-phosphate
glucosamine-6-phosphate [1] = variants of: B1; experiment: self-cleavage kobs at 40 uM GlcN6P; higher = faster cleavage; RNA array
In short: (§1)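 Barcoded ribozyme variants on sequenced MiSeq chips were transcribed in situ by E. coli RNA polymerase and followed at 37 °C through a hybridised Cy3 probe. Glucosamine-6-phosphate at 40 μM to 10 mM in HEPES/KCl/Mg(OAc)2 buffer was flowed in, and tiles were imaged over ~14 h. Signals were normalised to baseline and to non-cleaving reference variants, and per-tile medians were fit to one- or two-exponential decays to give kobs. Weighted Michaelis–Menten fits across concentrations gave kcat and KM.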

glucosamine-6-phosphate [2] = variants of: B1; experiment: self-cleavage kobs at 160 uM GlcN6P; higher = faster cleavage; RNA array
In short: as §1

glucosamine-6-phosphate [3] = variants of: B1; experiment: self-cleavage kobs at 640 uM GlcN6P; higher = faster cleavage; RNA array
In short: as §1

glucosamine-6-phosphate [4] = variants of: B1; experiment: self-cleavage kobs at 2500 uM GlcN6P; higher = faster cleavage; RNA array
In short: as §1

glucosamine-6-phosphate [5] = variants of: B1; experiment: self-cleavage kobs at 10000 uM GlcN6P; higher = faster cleavage; RNA array
In short: as §1

Row | Variant | self-cleavage kobs at 40 uM GlcN6P (glucosamine-6-phosphate [1]) | self-cleavage kobs at 160 uM GlcN6P (glucosamine-6-phosphate [2]) | self-cleavage kobs at 640 uM GlcN6P (glucosamine-6-phosphate [3]) | self-cleavage kobs at 2500 uM GlcN6P (glucosamine-6-phosphate [4]) | self-cleavage kobs at 10000 uM GlcN6P (glucosamine-6-phosphate [5])
1 | A6U A48U C70U | < 1e-05 s⁻¹ | – | – | – | –
2 | A39U U54G C58U | < 1e-05 s⁻¹ | – | – | – | –
3 | G44C C58U | < 1e-05 s⁻¹ | < 1e-05 s⁻¹ | < 1e-05 s⁻¹ | < 1e-05 s⁻¹ | < 1e-05 s⁻¹
4 | G38A U45C | < 1e-05 s⁻¹ | < 1e-05 s⁻¹ | < 1e-05 s⁻¹ | < 1e-05 s⁻¹ | < 1e-05 s⁻¹
5 | G9A G43A | < 1e-05 s⁻¹ | – | < 1e-05 s⁻¹ | < 1e-05 s⁻¹ | –
6 | C16U G41A U56C | < 1e-05 s⁻¹ | – | – | – | 3.75e-05 ± 1.4e-05 s⁻¹
7 | G29C G40C U65C | < 1e-05 s⁻¹ | – | – | – | –
8 | A39G U56G | 0.00055 ± 0.00012 s⁻¹ | – | – | – | 0.0224 ± 0.0047 s⁻¹
9 | C16G G35U | < 1e-05 s⁻¹ | < 1e-05 s⁻¹ | < 1e-05 s⁻¹ | < 1e-05 s⁻¹ | < 1e-05 s⁻¹
10 | A6C G37U G44U | < 1e-05 s⁻¹ | – | – | – | –
11 | G37A C50A G59A G66A | < 1e-05 s⁻¹ | – | – | – | –
12 | C10G C16U | < 1e-05 s⁻¹ | < 1e-05 s⁻¹ | – | – | –
13 | U31A A33G A39U G43A A48U | < 1e-05 s⁻¹ | – | – | – | < 1e-05 s⁻¹
14 | A6C C11A | < 1e-05 s⁻¹ | < 1e-05 s⁻¹ | – | < 1e-05 s⁻¹ | –
15 | A15G U47A | 0.000718 ± 0.00011 s⁻¹ | – | – | 0.0116 ± 0.0042 s⁻¹ | 0.03 ± 0.0073 s⁻¹
16 | G44C G51A A53C | < 1e-05 s⁻¹ | – | – | – | < 1e-05 s⁻¹
17 | G38A G44C U47A | < 1e-05 s⁻¹ | – | – | – | < 1e-05 s⁻¹
18 | A15U U55G C61U | < 1e-05 s⁻¹ | – | – | – | < 1e-05 s⁻¹
19 | G38U U45G | < 1e-05 s⁻¹ | – | < 1e-05 s⁻¹ | – | –
20 | G13C U31A G40U | < 1e-05 s⁻¹ | – | < 1e-05 s⁻¹ | – | –
21 | A33G G66A | < 1e-05 s⁻¹ | < 1e-05 s⁻¹ | – | – | < 1e-05 s⁻¹
22 | A42U A53G U56C C71U | < 1e-05 s⁻¹ | – | – | – | –
23 | A14G G66A | 0.000901 ± 0.00011 s⁻¹ | 0.00369 ± 0.0009 s⁻¹ | 0.00997 ± 0.0018 s⁻¹ | 0.0046 ± 0.001 s⁻¹ | 0.0634 ± 0.015 s⁻¹
24 | G32U U47G U69G | 0.000146 ± 3.4e-05 s⁻¹ | – | – | – | 0.000404 ± 7.2e-05 s⁻¹
25 | G32A C70U | 6.22e-05 ± 6.9e-06 s⁻¹ | 0.000126 ± 2.7e-05 s⁻¹ | 0.000627 ± 9.7e-05 s⁻¹ | 0.000902 ± 0.00023 s⁻¹ | 0.00374 ± 0.00046 s⁻¹

— the supplement of paper PMC7125110
